{"source": "patent US20170306002A1", "about": "(UNITED STATES OF AMERICA AS REPESENTED BY THE SECRETARY …, published 2017)", "biological_target": "recombinant CA/09 NA protein (baculovirus, with N-terminal His-tag, tetramerization domain and thrombin site) (human; influenza A virus …, UniProt P50552 336-380)", "sequence (P50552 336-380)": "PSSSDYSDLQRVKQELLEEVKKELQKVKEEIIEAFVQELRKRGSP"}
{"binder": "mAb CD6 (whole IgG) (antibody, V domains shown) VH: QVKLQESGGGLVQPKGSLKLSCAASGFTFNTYAMNWVRQAPGKGLEWVARIRSKSNNYATFYADSVKDRFTISRDDSQSMLYLQMHNLKTDDTAMYYCVRPSIYYYASGYLDVWGAGTTVTVSS VL: QIVLSQSPAILSASPGEKVTMTCRTSSSVSYMHWYQQKPGSSPKPWIYATSNLASGVPFRFSGSGSGTSYSLTISRVEAEDAATYYCQQWNSNPPTFGGGTKLEIKR", "values": [{"measurement": "Kd", "result": "~95", "unit": "nM"}]}
